Biological target: T1, elongated peptide GPPGPPGRLVD (human)
T1 construct: The range follows from the stated cleavage site V1709-D1710 and the peptide length
T1 peptide: GPPGPPGRLVD
Experiment: competitive ELISA on biotin-… coated streptavidin plates
Description: A competitive ELISA using the monoclonal antibody raised against C7 was performed using the following procedure:
Streptavidin-coated plates were coated with 100 μL/well of 2.5 ng/mL biotin-labeled peptide (Biotin-[…], SEQ ID NO: 10) diluted in assay buffer (50 mM TBS-BTB, 2 g/L NaCl, pH 8.0) and incubated at 20° C., 300 rpm shaking for 30 minutes. Plates were washed five times in washing buffer ([…] TRIS, 50 mM NaCl, pH 7.2). Sample or standard peptide (20 μL) was added in double determinations and followed immediately by addition of 100 μL/well of 200 ng/mL HRP-labeled monoclonal antibody diluted in assay buffer and plates were incubated at 20° C., 300 rpm shaking for 3 hours. The standard peptide was a synthetic peptide ([…], SEQ ID NO: 1) with a starting concentration of 125 ng/ml and diluted 2-fold to create an 11 points calibration curve (FIG. 1). After incubation, plates were washed five times in washing buffer. A volume of 100 μL 3,3′, 5,5′-tetramethylbenzidine (TMB) was added and incubated for 15 min at 20° C. in the dark. To stop the enzyme reaction of TMB, […] 0.1% sulphuric acid was added and the absorbance was measured at 450 nm with 650 nm as the reference using an ELISA reader. A calibration curve was plotted using a 4-parametric mathematical fit model. […] All samples were measured within the range of the assay. […]

binding result: no binding
B1: monoclonal antibody raised against the C-terminal neo-epitope amino acid sequence …-COOH (C7) (antibody, mouse IgG1, kappa, V domains shown)
VH: EVQLQQSGPELVKPGASVKISCKTSGYTFIENTMNWVKQSHGKSLEWIGGINPKIGGSIYNQKFQDKATLTVDKSSSTAYMELRSLTSDDSAVYYCARGIYDEGWHFDVWGAGTTVTVSS
VL: DIVMTQAAFSNPVTLGTSASISCRSSQSLLYSNGITYLYWYLQKPGQSPQLLIYQMSNLASGVPDRFSSSGSGTDFTLRISRVEAEDVGVYYCAQNLELPWTFGGGTKLEIKR
notes: also called monoclonal antibody raised against C7; HRP-labeled monoclonal antibody

— patent US20250012810A1 (NORDIC BIOSCIENCE A S, published 2025)
